Assay results published in paper PMC6180082, “Structural Analysis of an Epitope Candidate of Triosephosphate Isomerase in Opisthorchis viverrini” (Scientific Reports, 2018).

Molecular target: the molecule itself
Experiment: crystal structure; OvTIM wild-type at ~80 mg/ml, hanging-drop vapor diffusion, 0.3 M magnesium chloride hexahydrate, 0.1 M Tris pH 8.5, 22% PEG 3350, 20 °C; molecular replacement; two homodimers in the asymmetric unit

B1: Triosephosphate isomerase from Opisthorchis viverrini (OvTIM), wild-type (enzyme)
chain: MPTDRKFFVGGNWKMNGSKKENDKLIEMLTHAKIDPNTEVLVAPPSLYLPSVREKLDKRFHVAAQNCYKVPSGAFTGEVSPAMLKDVGCDWVILGHSERRHILMETDQLVGEKTNHAISAGVNVIACIGEKLEEREAGKTEEVCFRQMEAIRKNLSSADMWNHIVIAYEPVWAIGTGKTATEQQAQEVHLAVRKWMEEKVSPAVANSIRIIYGGSVTAANCRTLAKQPDVDGFLVGGASLKPDFIEICNANA
notes: Triosephosphate isomerase (EC 5.3.1.1) of Opisthorchis viverrini; cDNA synthesized and cloned NdeI/XhoI into pET17b with a 6 His-tag and thrombin site; residues 175-179 have no clear electron density in the crystal; a thrombin site lies between tag and protein; source: E. coli BL21 (DE3) pLysS, purified (HisTrap HP, HiTrap Q HP, Superdex-200 SEC)
B1: binds.
